The numbers were not newly measured in paper PMC7421905, which cites them from elsewhere.

As usually defined, the Kd is a measure of binding affinity in units of concentration.

The target in the data set is Laminin 411 (Homo sapiens) (UniProt Q16363).
Chain of UniProt Q16363 (Q16363 25-1823, chain 1 of 3): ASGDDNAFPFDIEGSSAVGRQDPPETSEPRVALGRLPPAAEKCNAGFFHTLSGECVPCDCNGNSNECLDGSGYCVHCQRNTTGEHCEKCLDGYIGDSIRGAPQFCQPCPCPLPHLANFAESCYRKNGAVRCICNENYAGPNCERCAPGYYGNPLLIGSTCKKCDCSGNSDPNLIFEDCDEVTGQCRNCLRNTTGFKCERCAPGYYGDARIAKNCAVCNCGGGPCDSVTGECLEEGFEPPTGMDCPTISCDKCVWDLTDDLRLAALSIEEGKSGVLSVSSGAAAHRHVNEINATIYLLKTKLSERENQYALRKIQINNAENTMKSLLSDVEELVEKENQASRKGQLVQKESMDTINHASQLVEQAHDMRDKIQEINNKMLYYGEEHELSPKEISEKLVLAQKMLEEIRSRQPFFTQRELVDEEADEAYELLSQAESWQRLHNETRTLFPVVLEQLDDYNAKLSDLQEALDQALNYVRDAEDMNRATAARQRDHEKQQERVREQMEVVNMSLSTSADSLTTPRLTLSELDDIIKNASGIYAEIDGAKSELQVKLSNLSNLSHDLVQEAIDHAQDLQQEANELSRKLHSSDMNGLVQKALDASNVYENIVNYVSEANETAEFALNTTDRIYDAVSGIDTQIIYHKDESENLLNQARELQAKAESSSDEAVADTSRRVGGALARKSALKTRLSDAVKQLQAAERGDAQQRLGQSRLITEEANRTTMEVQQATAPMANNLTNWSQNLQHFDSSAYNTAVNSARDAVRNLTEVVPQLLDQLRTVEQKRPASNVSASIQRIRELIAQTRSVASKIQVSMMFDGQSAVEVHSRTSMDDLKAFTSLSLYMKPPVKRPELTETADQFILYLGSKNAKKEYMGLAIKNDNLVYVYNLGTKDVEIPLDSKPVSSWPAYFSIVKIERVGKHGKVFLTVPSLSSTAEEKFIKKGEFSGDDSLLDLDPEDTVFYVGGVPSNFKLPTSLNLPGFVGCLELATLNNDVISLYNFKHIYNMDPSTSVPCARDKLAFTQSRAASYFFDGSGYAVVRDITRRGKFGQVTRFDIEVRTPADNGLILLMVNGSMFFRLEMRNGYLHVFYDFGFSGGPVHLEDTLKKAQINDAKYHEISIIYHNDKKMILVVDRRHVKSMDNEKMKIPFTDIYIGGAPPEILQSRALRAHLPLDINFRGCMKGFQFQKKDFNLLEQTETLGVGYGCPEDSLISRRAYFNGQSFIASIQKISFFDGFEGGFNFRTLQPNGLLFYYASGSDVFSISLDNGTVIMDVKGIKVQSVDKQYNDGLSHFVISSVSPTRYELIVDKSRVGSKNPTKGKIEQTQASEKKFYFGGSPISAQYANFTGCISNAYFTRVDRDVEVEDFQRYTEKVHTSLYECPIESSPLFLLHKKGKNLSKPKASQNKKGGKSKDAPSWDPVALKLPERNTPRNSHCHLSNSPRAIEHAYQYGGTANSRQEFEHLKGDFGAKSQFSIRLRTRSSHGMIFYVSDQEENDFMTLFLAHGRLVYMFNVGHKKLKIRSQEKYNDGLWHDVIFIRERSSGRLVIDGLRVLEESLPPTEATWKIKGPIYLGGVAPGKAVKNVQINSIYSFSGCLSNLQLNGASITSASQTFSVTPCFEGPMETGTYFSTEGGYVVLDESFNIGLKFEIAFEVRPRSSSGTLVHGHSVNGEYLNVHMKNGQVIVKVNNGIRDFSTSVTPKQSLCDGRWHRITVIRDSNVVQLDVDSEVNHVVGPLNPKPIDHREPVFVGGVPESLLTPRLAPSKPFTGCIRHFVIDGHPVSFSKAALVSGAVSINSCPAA
Chain of UniProt Q16363 (P07942 22-1786, chain 2 of 3, further chain): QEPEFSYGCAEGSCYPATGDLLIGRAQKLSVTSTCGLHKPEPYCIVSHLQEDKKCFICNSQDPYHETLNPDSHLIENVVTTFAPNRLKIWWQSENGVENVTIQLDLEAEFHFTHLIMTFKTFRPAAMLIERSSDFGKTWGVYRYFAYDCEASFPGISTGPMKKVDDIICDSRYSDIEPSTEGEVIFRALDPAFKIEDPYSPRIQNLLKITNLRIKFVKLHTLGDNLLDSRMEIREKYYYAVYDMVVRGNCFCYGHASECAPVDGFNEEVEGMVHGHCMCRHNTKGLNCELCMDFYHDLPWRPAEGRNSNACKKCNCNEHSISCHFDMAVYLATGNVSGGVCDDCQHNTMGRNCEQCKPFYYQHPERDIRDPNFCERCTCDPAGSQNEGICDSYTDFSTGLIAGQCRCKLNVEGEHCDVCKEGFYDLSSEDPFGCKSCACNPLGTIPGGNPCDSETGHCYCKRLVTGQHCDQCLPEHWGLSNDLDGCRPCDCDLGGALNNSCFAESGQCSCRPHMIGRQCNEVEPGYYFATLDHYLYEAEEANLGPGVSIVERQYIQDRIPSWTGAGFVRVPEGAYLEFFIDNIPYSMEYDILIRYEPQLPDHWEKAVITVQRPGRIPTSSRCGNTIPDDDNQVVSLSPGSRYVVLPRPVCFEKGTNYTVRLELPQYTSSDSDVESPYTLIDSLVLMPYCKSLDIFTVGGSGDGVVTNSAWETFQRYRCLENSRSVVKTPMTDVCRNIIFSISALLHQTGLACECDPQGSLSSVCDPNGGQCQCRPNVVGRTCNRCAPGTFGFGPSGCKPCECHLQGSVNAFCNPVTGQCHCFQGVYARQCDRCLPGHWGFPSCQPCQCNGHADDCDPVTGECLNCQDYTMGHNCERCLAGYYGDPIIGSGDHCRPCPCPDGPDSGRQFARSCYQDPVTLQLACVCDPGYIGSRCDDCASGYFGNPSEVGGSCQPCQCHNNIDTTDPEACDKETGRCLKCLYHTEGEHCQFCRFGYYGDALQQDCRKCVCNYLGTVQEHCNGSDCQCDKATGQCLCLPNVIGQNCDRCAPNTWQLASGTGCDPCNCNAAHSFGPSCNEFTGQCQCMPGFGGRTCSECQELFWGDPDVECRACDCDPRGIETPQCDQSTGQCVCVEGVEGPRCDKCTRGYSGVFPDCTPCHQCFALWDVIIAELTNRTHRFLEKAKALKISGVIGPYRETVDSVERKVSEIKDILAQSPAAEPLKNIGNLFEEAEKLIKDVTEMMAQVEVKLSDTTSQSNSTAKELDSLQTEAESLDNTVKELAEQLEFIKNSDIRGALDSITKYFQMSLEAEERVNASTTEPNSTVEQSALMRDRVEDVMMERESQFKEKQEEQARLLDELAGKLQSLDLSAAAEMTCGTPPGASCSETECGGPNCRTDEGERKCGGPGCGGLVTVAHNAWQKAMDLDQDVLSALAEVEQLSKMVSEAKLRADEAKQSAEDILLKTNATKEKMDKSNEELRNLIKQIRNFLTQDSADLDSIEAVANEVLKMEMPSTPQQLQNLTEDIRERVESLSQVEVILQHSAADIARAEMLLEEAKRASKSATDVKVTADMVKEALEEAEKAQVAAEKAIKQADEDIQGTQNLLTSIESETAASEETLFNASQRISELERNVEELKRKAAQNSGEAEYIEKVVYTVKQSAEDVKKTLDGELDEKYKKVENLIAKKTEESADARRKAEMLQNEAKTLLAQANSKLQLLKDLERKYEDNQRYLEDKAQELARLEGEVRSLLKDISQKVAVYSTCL
Chain of UniProt Q16363 (P11047 34-1609, chain 3 of 3, further chain): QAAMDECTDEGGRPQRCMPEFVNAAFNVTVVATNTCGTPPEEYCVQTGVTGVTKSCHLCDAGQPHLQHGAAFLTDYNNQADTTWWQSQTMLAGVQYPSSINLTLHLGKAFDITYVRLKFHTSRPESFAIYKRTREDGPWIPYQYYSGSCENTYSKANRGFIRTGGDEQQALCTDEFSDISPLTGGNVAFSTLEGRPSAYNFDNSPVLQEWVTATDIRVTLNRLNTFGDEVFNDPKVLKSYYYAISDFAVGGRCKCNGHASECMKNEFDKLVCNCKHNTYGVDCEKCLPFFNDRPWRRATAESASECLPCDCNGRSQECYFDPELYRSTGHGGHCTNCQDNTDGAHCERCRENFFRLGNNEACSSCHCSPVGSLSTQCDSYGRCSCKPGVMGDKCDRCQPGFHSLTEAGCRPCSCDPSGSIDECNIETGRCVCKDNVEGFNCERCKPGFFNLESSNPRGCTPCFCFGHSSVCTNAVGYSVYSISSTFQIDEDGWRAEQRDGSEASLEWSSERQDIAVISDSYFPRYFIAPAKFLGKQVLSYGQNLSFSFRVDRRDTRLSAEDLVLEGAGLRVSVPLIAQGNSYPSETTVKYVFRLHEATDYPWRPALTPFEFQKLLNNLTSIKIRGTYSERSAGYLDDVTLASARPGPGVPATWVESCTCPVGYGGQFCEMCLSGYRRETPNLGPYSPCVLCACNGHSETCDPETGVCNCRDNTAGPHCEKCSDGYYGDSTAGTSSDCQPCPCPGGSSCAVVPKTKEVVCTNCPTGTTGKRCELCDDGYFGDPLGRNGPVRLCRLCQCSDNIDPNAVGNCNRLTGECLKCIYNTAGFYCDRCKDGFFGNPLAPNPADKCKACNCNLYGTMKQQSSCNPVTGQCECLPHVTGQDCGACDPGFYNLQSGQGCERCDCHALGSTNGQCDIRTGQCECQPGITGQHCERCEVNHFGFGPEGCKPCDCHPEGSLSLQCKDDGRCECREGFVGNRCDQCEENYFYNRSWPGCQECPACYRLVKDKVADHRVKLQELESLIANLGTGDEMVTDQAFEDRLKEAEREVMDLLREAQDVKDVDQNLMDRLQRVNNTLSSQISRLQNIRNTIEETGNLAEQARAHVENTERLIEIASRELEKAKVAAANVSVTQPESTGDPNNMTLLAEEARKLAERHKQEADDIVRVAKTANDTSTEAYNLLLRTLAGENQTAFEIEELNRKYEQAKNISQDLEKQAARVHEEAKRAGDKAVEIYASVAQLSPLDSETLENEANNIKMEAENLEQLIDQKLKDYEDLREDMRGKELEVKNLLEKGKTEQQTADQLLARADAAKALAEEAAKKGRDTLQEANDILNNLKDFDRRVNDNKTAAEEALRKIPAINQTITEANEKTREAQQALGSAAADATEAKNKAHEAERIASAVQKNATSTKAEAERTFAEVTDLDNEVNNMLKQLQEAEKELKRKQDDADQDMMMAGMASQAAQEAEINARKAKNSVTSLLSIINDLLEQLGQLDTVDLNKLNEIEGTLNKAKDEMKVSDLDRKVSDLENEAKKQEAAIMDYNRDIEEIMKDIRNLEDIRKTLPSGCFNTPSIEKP

CD146-Fc (from UniProt P43121): the Kd was 27 nM.
